Data published in patent US20160102129A1 (Novo Nordisk, published 2016).
*1 amine or outer side, *2 acyl side, *3 side chain or, on linkers, in order; H or OH if unused. Where no end group is shown, it is not given here. Side-chain parts run from the residue outwards. [ ]: non-standard residue; d: D form. The star is where a group is joined. C18 diacid = O=C(O)CCCCCCCCCCCCCCCCC(=O)*; γGlu = O=C(O)[C@H](CCC(=O)[*:2])N[*:1]; Desaminohistidyl = O=C(CCc1c[nH]cn1)*; Ac4c = NC1(C(=O)O)CCC1; AEEA = NCCOCCOCC(=O)O; Aib = CC(C)(N)C(=O)O

B1: N^ε34-[2-[2-[2-[[2-[2-[2-[[(4S)-4-carboxy-4-[[(4S)-4-carboxy-4-[[(4S)-4-carboxy-4-(17-carboxyheptadecanoylamino)butanoyl]amino]butanoyl]amino]butanoyl]amino]eth … (peptide)
peptide: [Desaminohistidyl][Aib]HGTFTSDVSKYLEEQAAREFIAWLLK([Ado-Ado-γGlu-γGlu-γGlu-C18 diacid])T
notes: Named as peptide, not peptide amide (C-terminal acid)
B2: N^ε22-[(4S)-4-carboxy-4-[[(4S)-4-carboxy-4-[[2-[2-[2-[[2-[2-[2-[[(4S)-4-carboxy-4-(17-carboxyheptadecanoylamino)butanoyl]amino]ethoxy]ethoxy]acetyl]amino]ethoxy … (peptide)
peptide: [Desaminohistidyl][Ac4c]HGTFTSDVSKYLEK([γGlu-γGlu-AEEA-AEEA-γGlu-C18 diacid])RAAREFIAWLLKT-NH2
SMILES: CC[C@H](C)[C@H](NC(=O)[C@H](Cc1ccccc1)NC(=O)[C@H](CCC(=O)O)NC(=O)[C@H](CCCNC(=N)N)NC(=O)[C@H](C)NC(=O)[C@H](C)NC(=O)[C@H](CCCNC(=N)N)NC(=O)[C@H](CCCCNC(=O)CC[C@H](NC(=O)CC[C@H](NC(=O)COCCOCCNC(=O)COCCOCCNC(=O)CC[C@H](NC(=O)CCCCCCCCCCCCCCCCC(=O)O)C(=O)O)C(=O)O)C(=O)O)NC(=O)[C@H](CCC(=O)O)NC(=O)[C@H](CC(C)C)NC(=O)[C@H](Cc1ccc(O)cc1)NC(=O)[C@H](CCCCN)NC(=O)[C@H](CO)NC(=O)[C@@H](NC(=O)[C@H](CC(=O)O)NC(=O)[C@H](CO)NC(=O)[C@@H](NC(=O)[C@H](Cc1ccccc1)NC(=O)[C@@H](NC(=O)CNC(=O)[C@H](Cc1c[nH]cn1)NC(=O)C1(NC(=O)CCc2c[nH]cn2)CCC1)[C@@H](C)O)[C@@H](C)O)C(C)C)C(=O)N[C@@H](C)C(=O)N[C@@H](Cc1c[nH]c2ccccc12)C(=O)N[C@@H](CC(C)C)C(=O)N[C@@H](CC(C)C)C(=O)N[C@@H](CCCCN)C(=O)N[C@H](C(N)=O)[C@@H](C)O
B3: N^ε23-[2-[2-[2-[[2-[2-[2-[[(4S)-4-carboxy-4-(17-carboxyheptadecanoylamino)butanoyl]amino]ethoxy]ethoxy]acetyl]amino]ethoxy]ethoxy]acetyl]-[Imp7,Aib8,His9,Lys18, … (peptide)
peptide: [Desaminohistidyl][Aib]HGTFTSDVSKYLEGK([AEEA-AEEA-γGlu-C18 diacid])AAREFIAWLLKT-NH2
SMILES: CC[C@H](C)[C@H](NC(=O)[C@H](Cc1ccccc1)NC(=O)[C@H](CCC(=O)O)NC(=O)[C@H](CCCNC(=N)N)NC(=O)[C@H](C)NC(=O)[C@H](C)NC(=O)[C@H](CCCCNC(=O)COCCOCCNC(=O)COCCOCCNC(=O)CC[C@H](NC(=O)CCCCCCCCCCCCCCCCC(=O)O)C(=O)O)NC(=O)CNC(=O)[C@H](CCC(=O)O)NC(=O)[C@H](CC(C)C)NC(=O)[C@H](Cc1ccc(O)cc1)NC(=O)[C@H](CCCCN)NC(=O)[C@H](CO)NC(=O)[C@@H](NC(=O)[C@H](CC(=O)O)NC(=O)[C@H](CO)NC(=O)[C@@H](NC(=O)[C@H](Cc1ccccc1)NC(=O)[C@@H](NC(=O)CNC(=O)[C@H](Cc1c[nH]cn1)NC(=O)C(C)(C)NC(=O)CCc1c[nH]cn1)[C@@H](C)O)[C@@H](C)O)C(C)C)C(=O)N[C@@H](C)C(=O)N[C@@H](Cc1c[nH]c2ccccc12)C(=O)N[C@@H](CC(C)C)C(=O)N[C@@H](CC(C)C)C(=O)N[C@@H](CCCCN)C(=O)N[C@H](C(N)=O)[C@@H](C)O
B4: N^ε23-[2-[2-[2-[[2-[2-[2-[[(4S)-4-carboxy-4-(17-carboxyheptadecanoylamino)butanoyl]amino]ethoxy]ethoxy]acetyl]amino]ethoxy]ethoxy]acetyl]-[Imp7,Aib8,His9,Tyr16, … (peptide)
peptide: [Desaminohistidyl][Aib]HGTFTSDYSKYLEGK([AEEA-AEEA-γGlu-C18 diacid])AAREFIAWLLKT-NH2
SMILES: CC[C@H](C)[C@H](NC(=O)[C@H](Cc1ccccc1)NC(=O)[C@H](CCC(=O)O)NC(=O)[C@H](CCCNC(=N)N)NC(=O)[C@H](C)NC(=O)[C@H](C)NC(=O)[C@H](CCCCNC(=O)COCCOCCNC(=O)COCCOCCNC(=O)CC[C@H](NC(=O)CCCCCCCCCCCCCCCCC(=O)O)C(=O)O)NC(=O)CNC(=O)[C@H](CCC(=O)O)NC(=O)[C@H](CC(C)C)NC(=O)[C@H](Cc1ccc(O)cc1)NC(=O)[C@H](CCCCN)NC(=O)[C@H](CO)NC(=O)[C@H](Cc1ccc(O)cc1)NC(=O)[C@H](CC(=O)O)NC(=O)[C@H](CO)NC(=O)[C@@H](NC(=O)[C@H](Cc1ccccc1)NC(=O)[C@@H](NC(=O)CNC(=O)[C@H](Cc1c[nH]cn1)NC(=O)C(C)(C)NC(=O)CCc1c[nH]cn1)[C@@H](C)O)[C@@H](C)O)C(=O)N[C@@H](C)C(=O)N[C@@H](Cc1c[nH]c2ccccc12)C(=O)N[C@@H](CC(C)C)C(=O)N[C@@H](CC(C)C)C(=O)N[C@@H](CCCCN)C(=O)N[C@H](C(N)=O)[C@@H](C)O
B5: N^ε22-[(4S)-4-carboxy-4-[[(4S)-4-carboxy-4-[[2-[2-[2-[[2-[2-[2-[[(4S)-4-carboxy-4-(17-carboxyheptadecanoylamino)butanoyl]amino]ethoxy]ethoxy]acetyl]amino]ethoxy … (peptide)
peptide: [Desaminohistidyl][Ac4c]HGTFTSDVSKYLEK([γGlu-γGlu-AEEA-AEEA-γGlu-C18 diacid])QAAREFIAWLLKT-NH2
SMILES: CC[C@H](C)[C@H](NC(=O)[C@H](Cc1ccccc1)NC(=O)[C@H](CCC(=O)O)NC(=O)[C@H](CCCNC(=N)N)NC(=O)[C@H](C)NC(=O)[C@H](C)NC(=O)[C@H](CCC(N)=O)NC(=O)[C@H](CCCCNC(=O)CC[C@H](NC(=O)CC[C@H](NC(=O)COCCOCCNC(=O)COCCOCCNC(=O)CC[C@H](NC(=O)CCCCCCCCCCCCCCCCC(=O)O)C(=O)O)C(=O)O)C(=O)O)NC(=O)[C@H](CCC(=O)O)NC(=O)[C@H](CC(C)C)NC(=O)[C@H](Cc1ccc(O)cc1)NC(=O)[C@H](CCCCN)NC(=O)[C@H](CO)NC(=O)[C@@H](NC(=O)[C@H](CC(=O)O)NC(=O)[C@H](CO)NC(=O)[C@@H](NC(=O)[C@H](Cc1ccccc1)NC(=O)[C@@H](NC(=O)CNC(=O)[C@H](Cc1c[nH]cn1)NC(=O)C1(NC(=O)CCc2c[nH]cn2)CCC1)[C@@H](C)O)[C@@H](C)O)C(C)C)C(=O)N[C@@H](C)C(=O)N[C@@H](Cc1c[nH]c2ccccc12)C(=O)N[C@@H](CC(C)C)C(=O)N[C@@H](CC(C)C)C(=O)N[C@@H](CCCCN)C(=O)N[C@H](C(N)=O)[C@@H](C)O
B6: N^ε34-[2-[[(2S)-2-[[(2S)-4-carboxy-2-[[2-[[(2S)-2-[[(4S)-4-carboxy-4-[[(4S)-4-carboxy-4-(17-carboxyheptadecanoylamino)butanoyl]amino]butanoyl]amino]-3-hydroxypr … (peptide)
peptide: [Desaminohistidyl][Aib]HGTFTSDVSKYLEEQAAREFIAWLLK([Gly-Ser-Glu-Gly-Ser-γGlu-γGlu-C18 diacid])T
notes: as for B1

How the values were obtained:
human glucagon receptor [1] = target: T1, human glucagon receptor (human, UniProt P47871 26-477); test: SPA displacement of [125I]-glucagon from human glucagon receptor BHK membranes
T1 construct: whole, on cells; reporter assay on whole cells
T1 sequence (P47871 26-477): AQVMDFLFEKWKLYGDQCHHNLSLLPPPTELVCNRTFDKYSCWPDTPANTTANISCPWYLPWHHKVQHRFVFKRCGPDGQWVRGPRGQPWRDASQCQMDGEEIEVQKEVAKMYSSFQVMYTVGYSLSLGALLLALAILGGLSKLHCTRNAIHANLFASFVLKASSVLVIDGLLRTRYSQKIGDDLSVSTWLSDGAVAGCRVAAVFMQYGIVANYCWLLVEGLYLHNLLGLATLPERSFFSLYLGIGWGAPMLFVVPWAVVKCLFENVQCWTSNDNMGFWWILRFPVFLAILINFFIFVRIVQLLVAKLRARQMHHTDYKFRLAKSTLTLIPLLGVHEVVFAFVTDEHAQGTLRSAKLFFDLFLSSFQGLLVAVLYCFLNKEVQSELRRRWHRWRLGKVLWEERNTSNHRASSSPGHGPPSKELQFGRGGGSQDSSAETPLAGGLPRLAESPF
Procedure: 1. For the receptor binding assay 50 μl of the assay buffer was added to each well of an assay plate. [0603] 2. Test compounds were serially diluted to give the following concentrations: 8×10EE-7 M, 8×10EE-8 M, 8×10EE-9 M, 8×10EE-10 M, 8×10EE-11 M, 8×10EE-12 M and 8×10EE-13 M. Twenty-five μl were added to appropriate wells in the assay plate. [0604] 3. Cell membrane aliquots were thawed and diluted to their working concentration. Fifty μl were added to each well in the assay plate. [0605] 4. WGA SPA beads were suspended in assay buffer at 20 mg/ml. The suspension was diluted to 10 mg/ml in assay buffer just prior to addition to the assay plate. Fifty μl were added to each well in the assay plate. [0606] 5. […] A 25 μl aliquot was reserved for measuring total counts/well. […] 6. The assay plate was incubated for 2 h at 25° C. [0608] 7. The assay plate was centrifuged for 10 min at 1500 rpm. [0609] 8. The assay plate was read in a Perkin Elmer TopCount NXT instrument.

human GLP-1 receptor [2] = target: T2, human GLP-1 receptor (human, UniProt P43220 24-463); test: SPA displacement of [125I]GLP-1(7-36)NH2 from hGLP-1R BHK membranes
T2 construct: whole, on cells; reporter assay on whole cells
Procedure: The GLP-1 receptor binding of each derivatives were determined with competitive binding, displacing [¹²⁵I]GLP-1 bound to GLP-1 receptors expressed in cell membranes associated with wheat germ agglutinin (WGA) scintillation proximity assay (SPA) beads. Each derivative was added in a series of concentrations to isolated membranes comprising the human GLP-1 receptor and displacement of the labelled radioligand was monitored. The receptor binding was reported as the concentration at which half of the labelled ligand is displaced from the receptor, the IC⁵⁰ value.
1. For the receptor binding assay 50 μl of the assay buffer was added to each well of an assay plate. [0588] 2. Test compounds were serially diluted to give the following concentrations: 8×10EE-7 M, 8×10EE-8 M, 8×10EE-9 M, 8×10EE-10 M, 8×10EE-11 M, 8×10EE-12 M and 8×10EE-13 M. Twenty-five μl were added to appropriate wells in the assay plate. [0589] 3. Cell membrane aliquots were thawed and diluted to their working concentration. Fifty μl were added to each well in the assay plate. [0590] 4. WGA SPA beads were suspended in assay buffer at 20 mg/ml. The suspension was diluted to 10 mg/ml in assay buffer just prior to addition to the assay plate. Fifty μl were added to each well in the assay plate. [0591] 5. […] A 25 μl aliquot was reserved for measuring total counts/well. [0592] 6. The assay plate was incubated for 2 h at 30° C. [0593] 7. The assay plate was centrifuged for 10 min. [0594] 8. The assay plate was read in a Perkin Elmer TopCount NXT instrument.

human glucagon receptor [3] = target: T1, human glucagon receptor; test: cell-based or functional assay
human GLP-1 receptor [4] = target: T2, human GLP-1 receptor; test: cell-based or functional assay

Binder | IC50 (human glucagon receptor [1]) [nM] | IC50 (human GLP-1 receptor [2]) [nM] | EC50 GlucagonR [pM], CRE luciferase reporter gene assay (human glucagon receptor [3]) [pM] | EC50 GLP-1R [pM], CRE luciferase reporter gene assay (human GLP-1 receptor [4]) [pM]
[Desaminohistidyl][Aib]HGTFTSDVSKYLEK([γGlu-γGlu-AEEA-AEEA-γGlu-C18 diacid])QAAREFIAWLLKGGG | 56 | 0.5 |  | 
[Desaminohistidyl][Aib]HGTFTSDYSKYLEEQAAREFIAWLLKGK([Gly-Ser-Glu-Gly-Ser-γGlu-γGlu-C18 diacid])G | 31.1 | 3.2 |  | 
B1 | 28.1 | 4.6 |  | 
[Desaminohistidyl]AHGTFTSDVSKYLEGRAAREFIAWLLK([Ado-Ado-γGlu-γGlu-γGlu-C18 diacid])GGG | 69.5 | 0.9 |  | 
[Desaminohistidyl]AHGTFTSDVSRYLEGRAAREFIAWLLK([Ado-Ado-γGlu-γGlu-γGlu-C18 diacid]) | 43.4 | 19 |  | 
[Desaminohistidyl][Aib]HGTFTSDVSKYLEEQAAREFIAWLLK([Gly-Ser-Glu-Gly-Ser-γGlu-γGlu-C18 diacid])T-NH2 | 3.2 | 0.4 | 40.7 | 5
B2 | 14.1 | 0.2 |  | 
B3 | 80.2 | 1.9 |  | 
B4 | 51 | 13.1 |  | 
B5 | 17.9 | 0.2 |  | 
B6 | 18.8 | 6.9 |  | 
